Assay results: patent US20230192820A1 (published 2023)

Molecular target: Wild type
Experiment: ELISA

B1: Mab362 (antibody, V domains shown)
VH: QVQLVESGGGVVQPGRSLRLSCAASGFSFSSYGMHWVRQAPGKGLEWVAVIWYDGSDKYYADSVKGRFTISRDNSKNTLYLQLNSLRAEDTAIYYCARERYFDWIFDFWGQGTLVTVSS
VL: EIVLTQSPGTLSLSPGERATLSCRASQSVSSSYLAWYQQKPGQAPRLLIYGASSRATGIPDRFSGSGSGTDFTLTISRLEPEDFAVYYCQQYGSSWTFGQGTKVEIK
EC50: 0.64 µg/mL
